Assay results reported in publication PMC10779054.

Key:
Taq DNA polymerase = Taq DNA polymerase (Thermus aquaticus, UniProt P19821 1-832); assay: qPCR of aptamer bound to immobilized protein; 50 nM aptamer; 0.5 ug Taq/well; 0.1% methylcellulose, BSA or Tween 20 block; PBS + 0.1% Tween 20 (PBST); 1 h at 21 C (44/70-Taq) or 37 C (NC aptamer-nucleocapsid); wells blocked with 0.1% BSA, Tween 20 or methylcellulose; PBST washes; details: protein: commercial
[1] = biological target: SARS-CoV-2 nucleocapsid protein (SARS-CoV-2, UniProt P0DTC9 1-419); assay: aptamer-immuno-PCR (mAb sandwich, qPCR); PBS + 0.1% Tween 20 (PBST); 1 h at 21 C ([…]) or 37 C ([…]; details: protein: commercial; chain copies: 2

B1: 44/70 aptamer (ssDNA)
DNA: CCTTGAACCTGTGCCATTTGCTAATTGAGACTATTATGGGCTTTTTAGTCGAACAGTAGGAAGATGGAGG
Taq DNA polymerase
  binding result: binds

B2: NC aptamer (ssDNA)
DNA: GCAATGGTACGGTACTTCCGGATGCGGAAACTGGCTAATTGGTGAGGCTGGGGCGGTCGTGCAGCAAAAGTGCACGCTACTTTGCTAA
[1]
  binding result: binds
